Assay results: patent US20100048462A1, “TRUNCATED PTH PEPTIDES WITH A CYCLIC CONFORMATION” (Zealand Pharma A/S, priority 2006, published 2010)
Square brackets hold non-standard residues; d marks the D form. hArg = N=C(N)NCCCC[C@H](N)C(=O)O; Ac5c = NC1(C(=O)O)CCCC1; Aib = CC(C)(N)C(=O)O

T1: PTH receptor 1 (Mus musculus, UniProt P41593)
T1 construct: host or cells: MC3T3-E1 subclone 4
T1 sequence (P41593 27-591): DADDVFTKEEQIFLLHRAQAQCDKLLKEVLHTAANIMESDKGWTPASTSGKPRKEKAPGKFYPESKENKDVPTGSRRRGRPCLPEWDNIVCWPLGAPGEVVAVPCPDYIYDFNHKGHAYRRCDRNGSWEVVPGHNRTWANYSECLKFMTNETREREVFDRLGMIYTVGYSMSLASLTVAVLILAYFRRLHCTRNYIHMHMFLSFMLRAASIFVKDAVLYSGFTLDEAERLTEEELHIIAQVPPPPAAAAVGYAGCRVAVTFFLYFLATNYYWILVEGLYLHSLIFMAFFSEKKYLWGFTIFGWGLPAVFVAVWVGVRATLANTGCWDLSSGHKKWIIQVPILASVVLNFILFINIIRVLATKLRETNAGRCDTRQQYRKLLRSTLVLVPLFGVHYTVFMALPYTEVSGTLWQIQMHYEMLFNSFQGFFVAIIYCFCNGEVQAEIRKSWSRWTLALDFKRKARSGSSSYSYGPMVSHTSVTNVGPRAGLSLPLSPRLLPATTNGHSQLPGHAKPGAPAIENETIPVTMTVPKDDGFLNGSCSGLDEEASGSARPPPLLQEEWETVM

B1: H-Ac5c-Val-Aib-Glu-Ile-Gln-Leu-Met-His-Gln-Har-Ala-Lys-Trp-Leu-Asn-Asn-NH2 (peptide)
chain: H-[Ac5c]V[Aib]EIQLMHQ[hArg]AKWLNN-NH2
SMILES: CC[C@H](C)[C@H](NC(=O)[C@H](CCC(=O)O)NC(=O)C(C)(C)NC(=O)[C@@H](NC(=O)C1(N)CCCC1)C(C)C)C(=O)N[C@@H](CCC(N)=O)C(=O)N[C@@H](CC(C)C)C(=O)N[C@@H](CCSC)C(=O)N[C@@H](Cc1c[nH]cn1)C(=O)N[C@@H](CCC(N)=O)C(=O)N[C@@H](CCCCNC(=N)N)C(=O)N[C@@H](C)C(=O)N[C@@H](CCCCN)C(=O)N[C@@H](Cc1c[nH]c2ccccc12)C(=O)N[C@@H](CC(C)C)C(=O)N[C@@H](CC(N)=O)C(=O)N[C@@H](CC(N)=O)C(N)=O
B2: H-Ac5c-Val-Aib-Glu-Ile-Gln-Leu-Met-His-Gln-Har-Ala-Lys-Trp-NH2 (peptide)
chain: H-[Ac5c]V[Aib]EIQLMHQ[hArg]AKW-NH2
SMILES: CC[C@H](C)[C@H](NC(=O)[C@H](CCC(=O)O)NC(=O)C(C)(C)NC(=O)[C@@H](NC(=O)C1(N)CCCC1)C(C)C)C(=O)N[C@@H](CCC(N)=O)C(=O)N[C@@H](CC(C)C)C(=O)N[C@@H](CCSC)C(=O)N[C@@H](Cc1c[nH]cn1)C(=O)N[C@@H](CCC(N)=O)C(=O)N[C@@H](CCCCNC(=N)N)C(=O)N[C@@H](C)C(=O)N[C@@H](CCCCN)C(=O)N[C@@H](Cc1c[nH]c2ccccc12)C(N)=O

Columns and labels:
PTH receptor 1 = target: T1, PTH receptor 1; test: MC3T3-E1 cAMP efficacy assay; type: cell-based, murine; details: MC3T3-E1 cells
Protocol: MC3T3-E1 cells were seeded at 10,000 cells/well in 96-microtiter plates and grown overnight before the efficacy assays. On the day of analysis the growth medium was carefully removed by suction. Cells were washed once with 200 μl TB/0.1% […]. The buffer was replaced with 100 μl reaction mixture (±test peptide, +100 μM IBMX) and incubated at 37° C. for 13 min. The reaction was stopped by addition of 25 μl of ice-cold 0.5 M HCl. Cells were in the following incubated on ice for 60 min. 75 μl acetate-buffer were added to each well in a 96-well cAMP FlashPlate. […] FlashPlates were incubated overnight at 4° C., emptied by suction and counted in a TopCounter.
Determinations were performed in triplicates at all doses. Standards were included as single determinations, duplicates or triplicates in each experiment, preferentially on each plate.
Efficacy was evaluated in the concentration range from […].
Concentration-dependent cAMP responses were imported into GraphPad Prism vers. 4, transformed and plotted. Curves were fitted with a function for sigmoidal dose response curve non-linear fit Y=Bottom+(Top-Bottom)/(1+10̂((LogEC50-X))) where X is the logarithm of concentration and Y is the response. Y starts at Bottom and goes to Top with a sigmoid shape. pEC50 and the maximally inducible concentration of cAMP were evaluated. Overall statistical differences were analyzed using one-way ANOVA. Post-hoc comparisons were made by the use of Fisher's Least Significance Test. Results were considered significant, when p was lower than 0.05.

CYP2D6 = CYP2D6 (Homo sapiens, UniProt P10635); test: cell-based or functional assay
Saos-2 PTH1R = Saos-2 PTH1R (UniProt Q03431); test: cell-based or functional assay
[1] = target: PTH receptor 1 on MC3T3-E1 cells (murine) (UniProt P41593); test: cell-based or functional assay

Sequence of CYP2D6 (P10635 whole entry): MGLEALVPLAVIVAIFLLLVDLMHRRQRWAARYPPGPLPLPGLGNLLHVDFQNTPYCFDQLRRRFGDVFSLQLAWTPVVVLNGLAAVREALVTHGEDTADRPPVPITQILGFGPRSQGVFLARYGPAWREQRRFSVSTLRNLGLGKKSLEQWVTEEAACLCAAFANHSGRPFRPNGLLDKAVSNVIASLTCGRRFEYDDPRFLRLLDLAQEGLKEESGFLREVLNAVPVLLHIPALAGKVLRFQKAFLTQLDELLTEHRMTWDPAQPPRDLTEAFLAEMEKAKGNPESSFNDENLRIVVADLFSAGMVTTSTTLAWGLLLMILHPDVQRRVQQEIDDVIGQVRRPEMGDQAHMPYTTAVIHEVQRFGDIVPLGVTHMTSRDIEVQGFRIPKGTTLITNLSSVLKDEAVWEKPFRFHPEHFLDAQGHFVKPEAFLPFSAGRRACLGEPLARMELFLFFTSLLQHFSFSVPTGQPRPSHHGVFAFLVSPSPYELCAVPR

| Molecule | agonism on PTH receptor cAMP signalling (PTH receptor 1) | Emax ± SEM [pmol/well] (PTH receptor 1; maximally inducible cAMP) | CYP2D6 activity (% of vehicle), dextrorphan formation rate in human liver microsomes, 10 µM peptide (CYP2D6) | Emax, cAMP efficacy assay in Saos-2 cells (3T, trifluoroacetate salt) (relative to control (SEQ ID NO: 32)) (Saos-2 PTH1R) | pEC50, cAMP efficacy assay in Saos-2 cells (3T, trifluoroacetate salt) (Saos-2 PTH1R) | Emax, cAMP efficacy assay in MC3T3-E1 cells [1] [pmol/well] | agonist potency relative to SEQ ID NO: 2, cAMP in MC3T3-E1 cells [1] [fold weaker] | pEC50, cAMP efficacy assay in MC3T3-E1 cells [1] | Emax, cAMP efficacy assay in Saos-2 cells (31T, trifluoroacetate salt) (relative to control (SEQ ID NO: 32)) (Saos-2 PTH1R) | pEC50, cAMP efficacy assay in Saos-2 cells (31T, trifluoroacetate salt) (Saos-2 PTH1R) |
| --- | --- | --- | --- | --- | --- | --- | --- | --- | --- | --- |
| CC[C@H](C)[C@H](NC(=O)[C@H](CCC(=O)O)NC(=O)[C@H](CO)NC(=O)[C@@H](NC(=O)[C@@H](N)CO)C(C)C)C(=O)N[C@@H](CCC(N)=O)C(=O)N[C@@H](CC(C)C)C(=O)N[C@@H](CCSC)C(=O)N[C@@H](Cc1c[nH]cn1)C(=O)N[C@@H](CC(N)=O)C(=O)N[C@@H](CC(C)C)C(=O)NCC(=O)N[C@@H](CCCCN)C(=O)N[C@@H](Cc1c[nH]cn1)C(=O)N[C@@H](CC(C)C)C(=O)N[C@@H](CC(N)=O)C(=O)N[C@@H](CO)C(=O)N[C@@H](CCSC)C(=O)N[C@@H](CCC(=O)O)C(=O)N[C@@H](CCCNC(=N)N)C(=O)N[C@H](C(=O)N[C@@H](CCC(=O)O)C(=O)N[C@@H](Cc1c[nH]c2ccccc12)C(=O)N[C@@H](CC(C)C)C(=O)N[C@@H](CCCNC(=N)N)C(=O)N[C@@H](CCCCN)C(=O)N[C@@H](CCCCN)C(=O)N[C@@H](CC(C)C)C(=O)N[C@@H](CCC(N)=O)C(=O)N[C@@H](CC(=O)O)C(=O)N[C@H](C(=O)N[C@@H](Cc1c[nH]cn1)C(=O)N[C@@H](CC(N)=O)C(=O)N[C@@H](Cc1ccccc1)C(=O)O)C(C)C)C(C)C [SEQ ID NO: 32, reference compound] | robust cAMP response | 4.4 ± 0.4 | – | – | – | – | – | – | – | – |
| B1 | – | – | 21 % of vehicle | 1.06 | 8.04 -log(M) | 5.5 | 2 to 3 | 8.6 -log(M) | – | – |
| B2 | – | – | 22 % of vehicle | – | – | 4.5 | – | 8.4 -log(M) | 1.07 | 7.66 -log(M) |
